Test system: MS2 coat protein
Test: apparent KD of MS2 coat protein; higher = weaker reporter binding
Conditions: Eterna round: R107
In short: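 Designed RNA switches, transcribed on-chip from Illumina sequencing clusters, were titrated with SNAP-549-labelled MS2 coat protein from 0.7 or 1.5 nM to 3 µM in twofold steps. The solution was 100 mM Tris-HCl pH 7.5, 80 mM KCl, 4 mM MgCl2, with constant ligand or without it. Apparent KD is the median over each design's normalised cluster binding-curve fits.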

[1] = input ligand: theophylline 20 uM
[2] = input ligand: theophylline 2 mM
[3] = input ligand: tryptophan 2.4 mM

UGACAUUGCUCAGAUACCAGACAUGAGCAUCAGCCAUGUACCAAGAGUACAUAUUAAAAUGUCCCUUGGCAGCUGAGCAAUGUCU [Mod of Eli's TheoBX5 #AlternateMS2 v1]
apparent KD of MS2 coat protein (input ligand: arginine 13.2 mM): 15.2 nM | apparent KD of MS2 coat protein (input ligand: none): 11 nM | apparent KD of MS2 coat protein [1]: 18.7 nM | apparent KD of MS2 coat protein [2]: 166 nM | apparent KD of MS2 coat protein [3]: 11.8 nM

UGACAUUGCUCAGAUACCAGACAUGAGGAUCACCCAUGUGCCAAAACGUACUAAAUAAAUGUCCCUUGGCAGCUGAGCAAUGUCU [TheoBX 13 #MS2Left #Theo2]
apparent KD of MS2 coat protein (input ligand: arginine 13.2 mM): 13.5 nM | apparent KD of MS2 coat protein [1]: 14.4 nM | apparent KD of MS2 coat protein [3]: 12.9 nM

UGAGGGACCAGAAGGAGCGACAUGAGGAUCACCCAUGUCUCCCGUUAUGGGAGUUCUUUAGGUCAGGUAGGUCGCUGGUCCCUCA [#1 Exclusion - Arginine B Attempt #7 (Inspired by Omei)]
apparent KD of MS2 coat protein (input ligand: arginine 13.2 mM): 25.6 nM | apparent KD of MS2 coat protein (input ligand: none): 77.9 nM | apparent KD of MS2 coat protein [1]: 256 nM

UGAUGGUGCUGAAGGAGCGUGUAAGAACAAGAACAUGAGGAUCACCCAUGUAUUAAUUUAACGCAGGUAGGUCGCGGUGUUAUUG [11.M]
apparent KD of MS2 coat protein (input ligand: arginine 13.2 mM): 22.4 nM | apparent KD of MS2 coat protein (input ligand: none): 20.2 nM | apparent KD of MS2 coat protein [1]: 30.7 nM | apparent KD of MS2 coat protein [2]: 22.4 nM | apparent KD of MS2 coat protein [3]: 18.6 nM

UGAUUGAACGGAAGGAGCGUGAAGAGAGAGAAACAUGAGGAUCACCCAUGUAGAGAGAGAACACAGGUAGGUCGCCGAGAGAUUG [11.B]
apparent KD of MS2 coat protein (input ligand: arginine 13.2 mM): 14.5 nM | apparent KD of MS2 coat protein (input ligand: none): 13.4 nM | apparent KD of MS2 coat protein [1]: 21.2 nM | apparent KD of MS2 coat protein [2]: 14.7 nM | apparent KD of MS2 coat protein [3]: 11.2 nM

UGCAUGAGGAUCGCCCGUGUCGAGCCGGUGCGAGGACCGGUACGGCCGCCACUCGAGACAUGAGGAUCACCCAUGUUGUGCGUGA [Exclusion Tryptophan A GF24]
apparent KD of MS2 coat protein (input ligand: arginine 13.2 mM): 27.9 nM | apparent KD of MS2 coat protein [1]: 79.5 nM | apparent KD of MS2 coat protein [2]: 56.4 nM

UGCGGACAUGAGGAUCACCCAUGUGCGGAUACCAGCAGCCGGCUCUGCCCUUGGCAGCCGCUACCCUUGCACGUUUAACGAUCCA [theeternabot_sameState_MS2_Theo_A_27]
apparent KD of MS2 coat protein (input ligand: arginine 13.2 mM): 31.9 nM | apparent KD of MS2 coat protein [1]: 60.2 nM | apparent KD of MS2 coat protein [3]: 50.1 nM

UGCUGACAAGGACAUGGAUGAUCAGCUGAUACCAGCCUGGAAACAGGCCCUUGGCAGCAGCACAUGAGGAUCACCCAUGUAAUAA [(T)'-(M)'-(T1)-(T2)-(M1)-(M2)_Design3(Mismatches)]
apparent KD of MS2 coat protein (input ligand: arginine 13.2 mM): 28.4 nM | apparent KD of MS2 coat protein [1]: 78.1 nM | apparent KD of MS2 coat protein [3]: 27.2 nM

UGGAGUAGGACGGCCGCCACUAUACAAUGUGUAUACAUGAGGAUCACCCAUGUAAUCCUCGGAGAUAGGACCGGGUCAAGUUGUG [X-tryptB-ms2@35]
apparent KD of MS2 coat protein (input ligand: arginine 13.2 mM): 39.4 nM | apparent KD of MS2 coat protein [1]: 85.4 nM | apparent KD of MS2 coat protein [2]: 59.8 nM

UGGCAAGAGGGAAGGAGCGUCAGCAGAGUCACAUGAGGAUCACCCAUGUAGCACGUGGUGUGACAGGUAGGUCGCCCUCUGCCGU [SS-ArgB12]
apparent KD of MS2 coat protein (input ligand: arginine 13.2 mM): 24.3 nM | apparent KD of MS2 coat protein (input ligand: none): 15.1 nM | apparent KD of MS2 coat protein [1]: 30.7 nM | apparent KD of MS2 coat protein [2]: 21.8 nM | apparent KD of MS2 coat protein [3]: 22.1 nM

UGGCAAGAGGGAAGGAGCGUCAGCUGAGUCACAUGAGGAUCACCCAUGUAGCACAUGGUGUGACAGGUAGGUCGCCCUCUGCCGU [SS-ArgB11]
apparent KD of MS2 coat protein (input ligand: arginine 13.2 mM): 34.4 nM | apparent KD of MS2 coat protein (input ligand: none): 21.5 nM | apparent KD of MS2 coat protein [1]: 36.6 nM | apparent KD of MS2 coat protein [2]: 28.8 nM | apparent KD of MS2 coat protein [3]: 23.7 nM

UGGUACAUGAGGAUCACCCAUGUUCCAGAUACCAGCGUCCCGGUGCGCCCUUGGCAGCUGGUGGUACAUGAGGAUCACCCAUGUG [Exclusion Theophylline A GF14]
apparent KD of MS2 coat protein (input ligand: arginine 13.2 mM): 35.2 nM | apparent KD of MS2 coat protein (input ligand: none): 40.2 nM | apparent KD of MS2 coat protein [1]: 50 nM | apparent KD of MS2 coat protein [2]: 61.2 nM | apparent KD of MS2 coat protein [3]: 44.9 nM

UGGUACAUGGCGGCCGCCACUUCACGUAAAAUAAAAACGUGAGGAUCACCCACGUAAUAAGUUGGGAGGACCGGGUCAUGUACCU
apparent KD of MS2 coat protein (input ligand: arginine 13.2 mM): 122 nM | apparent KD of MS2 coat protein (input ligand: none): 321 nM | apparent KD of MS2 coat protein [1]: 344 nM | apparent KD of MS2 coat protein [2]: 491 nM | apparent KD of MS2 coat protein [3]: 123 nM

UGGUACUAGGCGGCCGCCACUGGGUGAUACAUGAGGAUCACCCAUGUUUAAUGCCGAGAGGCAACUAGGACCGGGCCUAGUACAU
apparent KD of MS2 coat protein (input ligand: arginine 13.2 mM): 101 nM | apparent KD of MS2 coat protein [1]: 339 nM | apparent KD of MS2 coat protein [2]: 586 nM

UGUAACAUGAGGAUCACCCAUGUAAGUGAUACCAGAUAAGUAGUAGUCCCUUGGCAGCAUAUUGGGCGAGUGUAUAGUCUAUACG [Same State - Theophylline A (Freestyle 7)]
apparent KD of MS2 coat protein (input ligand: arginine 13.2 mM): 39.9 nM | apparent KD of MS2 coat protein [1]: 69.8 nM | apparent KD of MS2 coat protein [3]: 49.7 nM

UGUACCAUGUCGGCCGCCACUCAUGAUAAGCAUGAGGAUCACCCAUGUAGCGUCAAAGACGCUAUGAGGACCGGGACAUGGUACU [TryBS Zipper 2]
apparent KD of MS2 coat protein (input ligand: arginine 13.2 mM): 34.3 nM | apparent KD of MS2 coat protein (input ligand: none): 34.7 nM | apparent KD of MS2 coat protein [1]: 47.1 nM | apparent KD of MS2 coat protein [2]: 41.2 nM | apparent KD of MS2 coat protein [3]: 13.2 nM

UGUACUAUGUGAAGGAGCGAGAAGGAGCGAACAUGAGGAUCACCCAUGUACAGGUAGGUCGCUCAGGUAGGUCGCACAUAGUACU [ArgBS - Double aptamer]
apparent KD of MS2 coat protein (input ligand: arginine 13.2 mM): 13.2 nM | apparent KD of MS2 coat protein (input ligand: none): 9.94 nM | apparent KD of MS2 coat protein [1]: 14.6 nM | apparent KD of MS2 coat protein [2]: 14.4 nM | apparent KD of MS2 coat protein [3]: 11.7 nM

Reference: the supplement of paper PMC9170038
